This note sets out measurements from patent publication US12528864 (GlaxoSmithKline, dated 2026).

Like-named read-outs stand apart in the source and are kept apart here.

Experiment [1] has as its target T1, cynomolgus monkey CD96v2 expressed on cells (CHO cells; transiently transfected HEK cells) (cynomolgus monkey, UniProt A0A2K5TWV6 22-569).
T1 construct: the cell is named under assay; also called CHO-cyCD96; Cyno CD96v2
T1 sequence: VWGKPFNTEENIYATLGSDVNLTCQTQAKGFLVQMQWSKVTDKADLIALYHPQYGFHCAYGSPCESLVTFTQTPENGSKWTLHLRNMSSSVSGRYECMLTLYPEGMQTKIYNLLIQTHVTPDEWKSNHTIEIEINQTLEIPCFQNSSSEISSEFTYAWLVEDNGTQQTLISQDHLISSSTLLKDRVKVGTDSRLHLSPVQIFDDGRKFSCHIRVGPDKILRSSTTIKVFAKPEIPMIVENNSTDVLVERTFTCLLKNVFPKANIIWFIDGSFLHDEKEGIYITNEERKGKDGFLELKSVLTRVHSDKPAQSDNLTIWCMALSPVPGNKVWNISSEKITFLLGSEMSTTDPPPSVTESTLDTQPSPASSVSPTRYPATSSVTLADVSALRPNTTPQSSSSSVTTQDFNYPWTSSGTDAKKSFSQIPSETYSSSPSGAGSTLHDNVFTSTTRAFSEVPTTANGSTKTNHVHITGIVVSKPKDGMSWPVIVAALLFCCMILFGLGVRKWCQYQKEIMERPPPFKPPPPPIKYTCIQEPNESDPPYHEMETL
Put plainly: flow cytometry on transiently transfected HEK cells (Cyno CD96v2). In general terms: A flow cytometer gives signals particle by particle.

For experiment [2], the target named is T2, human CD96v1 on transiently transfected HEK cells (human, UniProt P40200 22-585).
T2 construct: whole, on cells
T2 sequence (looked up): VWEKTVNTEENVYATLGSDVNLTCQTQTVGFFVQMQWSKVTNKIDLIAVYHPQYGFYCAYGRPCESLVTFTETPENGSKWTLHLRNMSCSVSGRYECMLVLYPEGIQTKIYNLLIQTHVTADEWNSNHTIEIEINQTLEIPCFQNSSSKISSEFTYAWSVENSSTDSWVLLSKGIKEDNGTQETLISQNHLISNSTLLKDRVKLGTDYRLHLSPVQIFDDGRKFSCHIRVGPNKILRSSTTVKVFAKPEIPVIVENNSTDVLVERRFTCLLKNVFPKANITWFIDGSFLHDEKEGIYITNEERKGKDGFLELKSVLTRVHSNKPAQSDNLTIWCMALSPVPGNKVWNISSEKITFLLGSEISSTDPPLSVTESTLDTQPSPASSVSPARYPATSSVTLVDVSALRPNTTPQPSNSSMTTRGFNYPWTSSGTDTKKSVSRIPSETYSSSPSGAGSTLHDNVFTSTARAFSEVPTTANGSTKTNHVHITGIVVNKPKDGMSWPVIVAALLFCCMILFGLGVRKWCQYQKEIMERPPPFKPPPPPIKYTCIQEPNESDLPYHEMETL
Put plainly: flow cytometry on transiently transfected HEK cells (Human CD96v1).

In another experiment the target is T3, recombinant human CD226 (human, UniProt Q15762 19-247, limits assumed).
T3 sequence (looked up): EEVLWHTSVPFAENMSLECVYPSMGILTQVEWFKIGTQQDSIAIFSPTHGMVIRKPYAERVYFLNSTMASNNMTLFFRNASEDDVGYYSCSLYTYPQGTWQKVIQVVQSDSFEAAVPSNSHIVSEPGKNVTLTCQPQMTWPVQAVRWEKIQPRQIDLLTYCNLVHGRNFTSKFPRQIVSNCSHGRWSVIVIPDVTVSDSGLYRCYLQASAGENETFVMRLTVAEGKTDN
Put plainly: surface plasmon resonance (SPR). In general terms: In SPR one partner is held on a chip, and binding of the other changes the refractive index at the surface.

For a further experiment, the target named is T4, recombinant human TIGIT (human, UniProt Q495A1 22-141).
T4 sequence (looked up): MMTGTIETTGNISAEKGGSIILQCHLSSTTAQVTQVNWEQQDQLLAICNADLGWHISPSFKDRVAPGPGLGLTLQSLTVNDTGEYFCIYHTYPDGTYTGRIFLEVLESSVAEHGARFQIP
Put plainly: surface plasmon resonance (SPR).

In experiment [3] the target is T5, recombinant human nectin-1 (human, UniProt Q15223 31-334, limits assumed).
T5 sequence (looked up): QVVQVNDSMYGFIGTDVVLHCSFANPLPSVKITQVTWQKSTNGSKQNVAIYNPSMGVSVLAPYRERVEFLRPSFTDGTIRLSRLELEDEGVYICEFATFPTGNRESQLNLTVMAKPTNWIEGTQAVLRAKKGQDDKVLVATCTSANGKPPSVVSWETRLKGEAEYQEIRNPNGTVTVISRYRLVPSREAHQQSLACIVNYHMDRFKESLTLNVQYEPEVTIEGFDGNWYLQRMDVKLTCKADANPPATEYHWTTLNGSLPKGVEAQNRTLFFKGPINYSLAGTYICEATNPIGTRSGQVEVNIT
Put plainly: surface plasmon resonance (SPR).

For a further experiment, the target named is T6, recombinant human CD155 (human, UniProt P15151 21-343).
T6 sequence: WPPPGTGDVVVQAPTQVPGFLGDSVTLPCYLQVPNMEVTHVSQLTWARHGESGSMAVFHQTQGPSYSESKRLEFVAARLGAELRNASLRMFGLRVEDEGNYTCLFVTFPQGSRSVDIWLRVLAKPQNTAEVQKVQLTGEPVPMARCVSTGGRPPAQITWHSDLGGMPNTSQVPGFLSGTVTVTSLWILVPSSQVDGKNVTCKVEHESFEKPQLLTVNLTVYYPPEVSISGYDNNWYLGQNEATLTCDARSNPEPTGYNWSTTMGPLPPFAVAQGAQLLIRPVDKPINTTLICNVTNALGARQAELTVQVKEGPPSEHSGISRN
Briefly: surface plasmon resonance (SPR).

The target of experiment [4] is T7, cynomolgus monkey CD96, native, on primary cynomolgus monkey T cells (cynomolgus monkey, UniProt A0A2K5TWV6 22-569).
T7 construct: whole, on cells
T7 sequence: T1 sequence
Put plainly: flow cytometry on activated cynomolgus monkey T cells, donor 1.

Experiment [5] addresses T2, human CD96v1 on transiently transfected …. Briefly: flow cytometry on transiently transfected HEK cells (Human CD96v1). The source holds these as a separate data set.

B1: 42Y073-86F08-66 (antibody)
heavy: not shown
light: DIQLTQSPSSLSASVGDRVTITCRASQSISSYLNWYQQKPGKAPKLLIYAASSLQSGVPSRFSGSGSGTDFTLTISSLQPEDFATYYCQQVLHTITFGGGTKVEIKRTVAAPSVFIFPPSDEQLKSGTASVVCLLNNFYPREAKVQWKVDNALQSGNSQESVTEQDSKDSTYSLSSTLTLSKADYEKHKVYACEVTHQGLSSPVTKSFNRGEC
notes: also called GSK 6097608; GSK6097608
As to B1, the concentration giving a half-maximal response (EC50 (read off the curve)) (usually the concentration needed to bring the measured effect to its halfway point) in experiment [1] is about 10 nM; in experiment [2] it was about 6 nM; in experiment [4] it was about 0.05 nM; in experiment [5] it was about 7 nM. The binding result (with recombinant human CD226; in the experiment with recombinant human TIGIT; in experiment [3]; in the experiment with recombinant human CD155) was “no binding” each time.
